The values below come from patent US20230257479A1 (Genmab, published 2023).

Assay [1] deals with T1, full length human 5T4 (SEQ ID NO: 1) on cells (human, UniProt Q13641 32-420).
T1 construct: Uniprot Q13641; residues 1-31 are the signal peptide; Used both for transfected HEK-293 cells and for 5T4-expressing human tumor cell lines
T1 sequence: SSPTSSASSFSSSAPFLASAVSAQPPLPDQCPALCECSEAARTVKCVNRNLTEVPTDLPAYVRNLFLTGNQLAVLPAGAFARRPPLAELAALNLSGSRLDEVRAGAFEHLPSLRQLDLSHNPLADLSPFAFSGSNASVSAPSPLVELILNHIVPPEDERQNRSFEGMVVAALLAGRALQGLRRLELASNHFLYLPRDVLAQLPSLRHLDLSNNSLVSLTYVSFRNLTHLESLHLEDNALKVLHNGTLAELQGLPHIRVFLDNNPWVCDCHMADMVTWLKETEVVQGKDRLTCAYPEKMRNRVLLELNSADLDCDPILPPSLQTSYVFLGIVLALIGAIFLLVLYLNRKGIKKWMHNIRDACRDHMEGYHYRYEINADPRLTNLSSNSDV
Kind of assay: flow cytometry, HeLa cells, FITC secondary [I)A].
Method: (§1) After washing twice in staining buffer, cells were incubated in 50 µL secondary antibody at 4° C. for 30 min. […] Next, cells were washed twice in staining buffer, re-suspended in 120 µL staining buffer and analyzed on a BD LSRFortessa FACS (BD Biosciences, USA). Binding curves were analyzed using non-linear regression (sigmoidal dose-response with variable slope) using GraphPad Prism V7.02 software (GraphPad Software, San Diego, CA, USA).

The target of assay [2] is T1, full length human 5T4 (SEQ ID NO: 1) on …. Kind of assay: flow cytometry, HEK-293 cells transfected with human 5T4, PE secondary [II)A].
The target is the same in assay [3]. Kind of assay: flow cytometry, HEK-293 cells transfected with human 5T4, FITC secondary [I)A]. On the technique in general: Flow cytometry measures light scatter and fluorescence of single cells or particles in a stream.
Method: (§2) Experiments were performed in technical duplicate. After washing twice in staining buffer, cells were incubated in 50 µL secondary antibody at 4° C. for 30 min. […] Cells were washed twice in staining buffer, re-suspended in 30 µL staining buffer and analyzed on an iQue Screener (Intellicyt Corporation, USA). Binding curves were analyzed using non-linear regression (sigmoidal dose-response with variable slope) using GraphPad Prism V7.02 software (GraphPad Software, San Diego, CA, USA).
For assay [4], the target named is T2, full length cynomolgus monkey 5T4 on transfected HEK-293 cells (cynomolgus monkey, UniProt Q4R8Y9 35-420).
T2 construct: Uniprot Q4R8Y9; residues 1-34 are the signal peptide; also called cynomolgus 5T4
T2 sequence: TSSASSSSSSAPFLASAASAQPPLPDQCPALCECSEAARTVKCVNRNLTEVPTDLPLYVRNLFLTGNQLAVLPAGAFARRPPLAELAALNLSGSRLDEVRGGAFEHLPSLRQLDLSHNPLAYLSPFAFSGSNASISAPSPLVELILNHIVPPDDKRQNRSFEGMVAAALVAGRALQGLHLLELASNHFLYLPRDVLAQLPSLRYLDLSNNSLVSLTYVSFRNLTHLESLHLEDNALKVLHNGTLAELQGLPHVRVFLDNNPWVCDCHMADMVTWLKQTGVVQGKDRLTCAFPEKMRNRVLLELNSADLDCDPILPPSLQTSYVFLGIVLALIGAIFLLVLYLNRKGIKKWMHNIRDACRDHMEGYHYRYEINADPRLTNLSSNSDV
Kind of assay: flow cytometry, HEK-293 cells transfected with cynomolgus monkey 5T4, PE secondary [II)A].

The target in assay [5] is T2, full length cynomolgus monkey 5T4 on …. Nature of the assay: flow cytometry, HEK-293 cells transfected with cynomolgus monkey 5T4, FITC secondary [I)A].
Method: as §2
Assay [6] concerns the target T1, full length human 5T4 (SEQ ID NO: 1) on …. Nature of the assay: flow cytometry, HeLa cells, FITC secondary [I)C].
Method: as §1
Assay [7] has the same target. Nature of the assay: flow cytometry, MDA-MB-231 cells, FITC secondary [I)C].
Method: Binding of CD3x5T4 bispecific and 5T4 monospecific antibodies to 5T4-positive human tumor cells. Mono- and bivalent binding of 5T4 antibodies to HeLa cells (left panels) or MDA-MB-231 cells (right panels) was determined by flow cytometry. Cells were incubated with increasing concentrations of antibodies. After secondary labelling with FITC-conjugated goat-anti-human IgG F(ab′)2, the MFI was determined by flow cytometry.
as §1
Assay [8] shares this target. Nature of the assay: flow cytometry, HEK-293 cells transfected with human 5T4, PE secondary [II)B].
For assay [9] the target is unchanged. Nature of the assay: flow cytometry, HEK-293 cells transfected with human 5T4, FITC secondary [I)B].
Method: as §2
The target in assay [10] is T2, full length cynomolgus monkey 5T4 on …. Kind of assay: flow cytometry, HEK-293 cells transfected with cynomolgus monkey 5T4, PE secondary [II)B].
Assay [11] has the same target. Kind of assay: flow cytometry, HEK-293 cells transfected with cynomolgus monkey 5T4, FITC secondary [I)B].
Method: as §2

B1: IgG1-5T4-207-FEAR (antibody, V domains shown)
VH: QVQLQQWGAGLLKPSETLSLTCAVYGGSFSGYYWTWIRQPPGKGLEWIGEIDHSESTNYNPSLKSRVTISVDTSKNQFSLKLSSVTAADTAVYYCAGWFGELYHYYYGMDVWGQGTTVTVSS
VL: EIVLTQSPATLSLSPGERATLSCRASQSVSSYLAWYQQKPGQAPRLLIYDASNRATGIPARFSGSGSGTDFTLTISSLEPEDFAVYYCQQRSNWPLTFGGGTKVEIKR
notes: Monospecific, bivalent IgG1 FEAR
On to B1, for which the “EC50 (read off the curve)” value in assay [1] was roughly 0.008 µg/mL; in assay [2], roughly 0.08 µg/mL; in assay [3] it was roughly 0.05 µg/mL; in assay [4], roughly 0.08 µg/mL; in [5], roughly 0.06 µg/mL.

B2: IgG1-5T4-226-FEAR (antibody, V domains shown)
VH: QVQLQQWGAGLLKPSETLSLTCAVYGGSFSGYYWSWIRQPPGKGLEWIGEIDHSGSTNYNPSLKSRVTISVDTSKNQFSLKLSSVTAADTAVYYCAAWFGELWDYYYGMDVWGQGTTVTVSS
VL: EIVLTQSPATLSLSPGERATLSCRASQSVSSFLAWYQQKPGQAPRLLIYDASNRATGIPARFSGSGSGTDFTLTISSLEPEDFAVYYCQQRSNWPLTFGQGTRLEIK
notes: Monospecific, bivalent human IgG1 kappa with L234F, L235E, D265A, K409R (FEAR); also called IgG1-5T4-226-FEAR-FITC
With B2, the concentration for a half-maximal effect (EC50 (read off the curve)) is roughly 0.01 µg/mL in assay [6]; roughly 0.04 µg/mL in assay [7]; roughly 0.02 µg/mL in [8]; roughly 0.1 µg/mL in [9]; roughly 0.02 µg/mL in assay [10]; roughly 0.08 µg/mL in [11].

By EC50 (read off the curve) is commonly meant the concentration needed to bring the measured effect to its halfway point.
